In publication PMC13281853 (The FASEB Journal, 2022):

Key:
[1] = biological target: ancGR2-LBD (ligand-binding domain of the ancestral glucocorticoid receptor 2), Dex-bound; test: SPR
[2] = biological target: the molecule itself; test: SPR

B1: MR-LBD (ligand-binding domain of the mineralocorticoid receptor), Dex-bound (domain or fragment)
chain: QLSTISRALTPSPVMVLENIEPEIVYAGYDSSKPDTAENLLSTLNRLAGKQMIQVVKWAKVLPGFKNLPLEDQITLIQYSWMCLSSFALSWRSYKHTNSQFLYFAPDLVFNEEKMHQSAMYELCQGMHQISLQFVRLQLTFEEYTIMKVLLLLSTIPKDGLKSQAAFEEMRTNYIKELRKMVTKCPNNSGQSWQRFYQLTKLLDSMHDLVSDLLEFCFYTFRESHALKVEFPAMLVEII
Kd [1]: 11.6 ± 1.5 µM
Kd [2]: 1.49 ± 0.41 µM
